This sample holds only a part of the variants without activity.

This is an account of results in the RNAGym collection of RNA variant scans (doi:10.1073/pnas.2313332121).

To fix the notation:
B1: TPR 5TU (parent)
chain: GGAUCUUCUCGAUCUAACAAAAAAGACAAAUCUGCCACAAAGCUUGAGAGCAUCUUCGGAUGCAGAGGCGGCAGCCUUCGGUGGCGCGAUAGCGCCAACGUUCUCAACUAUGACACGCAAAACGCGUGCUCCGUUGAAUGGAGUUUAUCAUG

The series covers variants of B1. As to the kind of experiment: polymerase ribozyme fitness, log enrichment relative to wild type (log ratio); higher = more active; in vitro selection for triplet polymerase activity. Put shortly: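 Mutant libraries were PCR-built and transcribed for each subunit of a heterodimeric triplet polymerase ribozyme and selected for one round in triplicate at −7 °C, frozen, before gel excision of extended constructs and streptavidin-bead capture. Input and output libraries were Illumina-sequenced, keeping genotypes with ≥10 input reads and ≥1 read per output. Fitness is a logarithmic ratio of genotype to wild-type enrichment, in base 2, using inverse-variance-weighted replicate averages.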
For the variant GGAUCUUCUCGAUCUAACAAAGAAGACAAAUUUGCCGCAACGCUUGAGAGCAUCUUCGGAUGCAGAGGCGACAGCCUUCGGUGGCGCGAUAGCGUGAACGUUCUCAACUAUGACACGCAAAACGCGUGCUCCGUUGAACGGAGUUUAUCAUG, the “polymerase ribozyme fitness (log ratio)” value is at most -4.2.
For GGAUCUUCUCGAUCUAACAAAGAAGACAAAUCUGCCACACAGCUUGAGAGCAUCUUCGGAUGCAGAGGCGGCAGCCUUCGGUGGCGCGAUAGCGCCAACGUUCUCAACUAUGACACGCAAAACGCGUGCUCCGUUGAAGGGAGUUUAUCAUG, the “polymerase ribozyme fitness (log ratio)” value turned out to be 0.649.
Then GGAUCUUCUCGAUCUAACAAAGAAGACAAAUCUGCCACAAAGCUUGAGAGCUUCUUCGGAUGCAGAGGCGGCAGCCUUCGGUGACGCGAUAGCGCCAACGUUCUCAACUAUGACACGCAAAAAGCGUGCUCCGUUGAAUGGAGUUUAUCAUG, with -2.11; and GGAUCUUCUCGAUCUAACAAAGAAGACAAAUCUGCCACAAAGCUUGAGAGCAUCUUCGGAUGCAGAGGCGGCAGCCUUCGGUGGCGCGAUAGCGCCAACGUUCUCGACUAUGACACGCAAACCUCGUGCUCCGUUGAAUGGAGUUUAUCAUG, with -0.81; and GGAUCUUCUCGAUCUAACAAAGAAGACAAAUCUGCCACGAAGCUUGAGAGCAUCUUCGGAAGCAGAGGCGGCAGCCUUCGGUGGCGCCAUAGCGCCAACGUUCUCAACUAUGACACGCAACACGCGUGCUCCGUUGAAUGGAGUUGAUCAUG, with at most -4.2.
Turning to GGAUCUUCUCGAUCUAACAAAGAAGACCAAUCGGCCACAAAGCUUGAGAGCAUCUUCGGAUGCAGAGGCGGCAGCCUUCGGUGGCGCGAUAGACUCAACGUUCUCAACUAUGACACGCAAUACGCGUGCUCCGUUGAAUGGAGUUUAUCAUG, the “polymerase ribozyme fitness (log ratio)” value is at most -4.2.
With GGAUCUUCUCGAUCUAACAAAGAAGACAAAUCUGCCACAAGGCUUGAGAGCAUCUUCGGAUGCAGAGGCGGCAGCCUUCGGUGGCGCGAUAGCGCCAACGUUCUCAACUAUGACACGCAGAACGCGUGCUCCGUUGAAUGUAGUUUAUCAUG, the “polymerase ribozyme fitness (log ratio)” value came out at 1.45.
Then GGAUCUUCUCGAUCUAACAAACAAGACAAAUCUGCCACAAAGCUUGAGAGCAUCGUCGGGUGCAGAGGCGGCAGCCUUCGGUGGCGCGAUAGCGCCAACGAUCUCAACUAUGACACGGAAAACGCGUGCUCCGUUGAAUGGAGUUUAUCAUG, with -0.937.
As to GGAUCUUCUCGAUCUAACAAACAAGACAAAUCUGCCACAAAGCUUGAGAGCAUCUAGGGAUGCAGAGGCGGCAGCCUUCGGUGGCUCGAUAGCGCCAACGUUCUCAACUAUGACACGCAAAACGCGUGCUCCGUUGAAUGGGGUUUAUCAUG, the “polymerase ribozyme fitness (log ratio)” value is -3.37.
Consider GGAUCUUCUCGAUCUAACAAAGAAGACAAAUCUGCCACAGCGCUUGAGAGCAUCUUUGGAUGCAGAGGCGGCAGCCUUCGGUGGCGCGAUAGCGCCAACGUUCUCAUCUAUGACACGCAUAACGCGUGCUCCGUUGAAUGGAGUUUAUCAUG, for which the “polymerase ribozyme fitness (log ratio)” value was at most -4.2.
Turning to GGAUCUUCUCGAUCUAACAAAGAAGACAAAUCUGCCACAACGCUUGAGAACAUCUUCGGAUGCAGAGGCGGCAGCCUUCGGUGGCGCGAUAGCGUCAACGGUCUCAACUAUGACACGCAAAACGCGUGCUCCGUUGAAUGGAGUUUAUCAUG, the “polymerase ribozyme fitness (log ratio)” value was -1.78.
Then GGAUCUUCUCGAUCUAACAAAGAAGACAAAUCUGCCACAAAGCUUGAGAGCAUCUUCGGAUGCAGAGGCGGCAGCCUUCGGUGGCGCGAUAGCGCCAACGUUCUCAACUAUGCCACGCAAAACGCGUGCUCCGUUGAAUGGAGUUUAUCAUG, with -2.12; and GGAUCUUCUCGAUCUAACAAAGAAGACAAAUCUGCGACAAAGCUUGAGAGCAUCUUCGGAUGCAGAGGCGGCAGCCUUCGGUGGCGCGAUAACGCCAACGUUCUCAACUAUGACACGCAAAACGCGUGCUCCGUUGGAUGGAGUUUAUCAUG, with at most -4.2; and GGAUCUUCUCGAUCUAACAAACAAGACAAAUCUGCCACAAAGCUUGAGAGCAUCUUCGGACGCAGAGGCGGCAGCCUUCAGUGGCGCGAUAGCGCCAACGUUCUCAACUAUGACACGCUAAACGAGUGCUCCGUUGAAUGGAGUUUAUCAUG, with -2.69.
The same measure for GGAUCUUCUCGAUCUAACAAAGAAGACGAAUCUGCCACAAAGCUUGAGAGCUUCUUCGGAUGCAGAGGCGGCAGCCUUCAGUGGCGCGAUAGGGCCAACGCUCUCAACUAUGUCACGCAAAACGCGUGCUCCGUUGAAUUGAGUUUAUCAUG: at most -4.2; for GGAUCUUCUCGAUCUAACAAAGAAGACAUAUCUGCCACAAAGCUUGAGAGCAUCUUCGGAUGCAGAGGCGGCAGCCCUCGGUGGGGCGAUAGCGUCAACGUUUUCAACUAUGAGACGCAAAACGUGUGCUCCGUUGAAUGGAGUUUAUCAUG: at most -4.2.
Then GGAUCUUCUCGAUCUAACAAAGAAGACAAAUCUGCCACAAAGCUUGAGAGCAUCUUCGGAUGCAGAGGCGGCAGCCUUCGGUGGCGCGAUAGCGCCAACGUUCUCAACUGUGACACGCAAAACGCGUGCUCCGUUGAAUGGAGUUUAUCAUG, with -3.28.
For the variant GGAUCUUCUCGAUCUAACAAACAAGACAAAUCUGCCACAAAGCUUGAGAGCAUCGUCGGAUGCAGAAGCGGCAGCCUACGGUGGCGCGAUAGGGCCAAAGUUCUCAACUAUGACACGCAAAACGCGUGCUCCGUUGAAUGGAGUUUAUGAUG, the “polymerase ribozyme fitness (log ratio)” value is at most -4.2.
Then GGAUCUUCUCGAUCUAACAAAGAAGACAAAUCUGCCACAAAGCUUGAGAGCAUCUUCGGAUGCAGAGGCGGCAGCCUUCGGUGGCGCGAUUGCGUCAACGUUCUCAACCAUGACACGCAAAACGCGUGCUCCGUUGUAUGGAGUUUAUCAUG, with at most -4.2.
